Laboratory results published in PMC9978855 (Acta Pharmaceutica Sinica. B, 2022).

Target: NLRP3 protein, purchased recombinant (UniProt Q96P20 1-1036)
Assay: SPR

NLRP3 protein, purchased recombinant, sequence (Q96P20 whole entry): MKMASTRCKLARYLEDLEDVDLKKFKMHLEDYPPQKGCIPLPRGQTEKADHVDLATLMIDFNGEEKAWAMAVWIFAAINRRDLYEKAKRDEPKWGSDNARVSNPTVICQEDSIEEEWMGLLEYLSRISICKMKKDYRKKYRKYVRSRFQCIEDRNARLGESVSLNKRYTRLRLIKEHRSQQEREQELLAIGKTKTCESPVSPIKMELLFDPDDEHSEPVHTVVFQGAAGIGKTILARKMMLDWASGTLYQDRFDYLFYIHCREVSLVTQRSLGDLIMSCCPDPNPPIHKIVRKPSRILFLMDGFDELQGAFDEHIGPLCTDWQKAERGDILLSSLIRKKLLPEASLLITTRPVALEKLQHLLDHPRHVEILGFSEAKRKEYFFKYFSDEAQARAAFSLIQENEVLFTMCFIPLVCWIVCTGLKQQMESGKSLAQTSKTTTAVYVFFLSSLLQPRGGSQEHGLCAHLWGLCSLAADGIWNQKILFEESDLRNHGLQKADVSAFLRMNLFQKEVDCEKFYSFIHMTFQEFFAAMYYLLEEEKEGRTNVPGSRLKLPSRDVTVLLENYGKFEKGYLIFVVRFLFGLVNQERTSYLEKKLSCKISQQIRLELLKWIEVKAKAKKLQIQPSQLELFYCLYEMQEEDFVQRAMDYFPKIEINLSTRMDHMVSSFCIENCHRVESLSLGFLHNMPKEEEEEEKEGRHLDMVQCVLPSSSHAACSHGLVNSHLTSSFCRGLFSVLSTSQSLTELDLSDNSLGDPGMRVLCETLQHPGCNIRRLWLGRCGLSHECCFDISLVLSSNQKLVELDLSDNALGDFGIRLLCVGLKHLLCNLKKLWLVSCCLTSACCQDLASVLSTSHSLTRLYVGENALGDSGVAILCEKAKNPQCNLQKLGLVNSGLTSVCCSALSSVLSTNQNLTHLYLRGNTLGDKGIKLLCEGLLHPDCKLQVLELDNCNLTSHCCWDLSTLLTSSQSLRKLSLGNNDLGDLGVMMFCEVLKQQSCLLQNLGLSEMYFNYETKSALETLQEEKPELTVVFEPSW

B1: ASCT2 protein (alanine-serine-cysteine transporter 2), purchased recombinant (natural protein, UniProt Q15758 1-541, looked up)
chain: MVADPPRDSKGLAAAEPTANGGLALASIEDQGAAAGGYCGSRDQVRRCLRANLLVLLTVVAVVAGVALGLGVSGAGGALALGPERLSAFVFPGELLLRLLRMIILPLVVCSLIGGAASLDPGALGRLGAWALLFFLVTTLLASALGVGLALALQPGAASAAINASVGAAGSAENAPSKEVLDSFLDLARNIFPSNLVSAAFRSYSTTYEERNITGTRVKVPVGQEVEGMNILGLVVFAIVFGVALRKLGPEGELLIRFFNSFNEATMVLVSWIMWYAPVGIMFLVAGKIVEMEDVGLLFARLGKYILCCLLGHAIHGLLVLPLIYFLFTRKNPYRFLWGIVTPLATAFGTSSSSATLPLMMKCVEENNGVAKHISRFILPIGATVNMDGAALFQCVAAVFIAQLSQQSLDFVKIITILVTATASSVGAAGIPAGGVLTLAIILEAVNLPVDHISLILAVDWLVDRSCTVLNVEGDALGAGLLQNYVDRTESRSTEPELIQVKSELPLDPLPVPTEEGNPLLKHYRGPAGDATVASEKESVM
For B1, the Kd was about 3.45 µM.
